Results published in paper PMC12435366, “Maleic anhydride derived diphosphines: adaptable chelators for receptor-targeted ^99mTc, ^64Cu and ^188Re radiotracers” (Chemical Science, 2025).

Experiment: Stability of radiotracers in PBS / kit-based reaction solution
Assay type: physicochemical
Conditions: ^99mTc and ^188Re radiotracers; radio-HPLC
Protocol: The new radiotracers, [^64Cu(DP^An-PSMAt)2]^+ and [^64Cu(DP^MEP-PSMAt)2]^+, were purified using reverse-phase HPLC, reformulated in aqueous PBS (phosphate buffered saline) solution, and incubated with human serum at 37 °C. […] Both ^64Cu radiotracers were also stable in aqueous PBS solution (see SI).
Both [^99mTcO2(DP^An-PSMAt)2]^+ and [^99mTcO2(DP^MEP-PSMAt)2]^+, prepared using kits, were incubated at 37 °C in human serum for up to 24 h. […] [^188ReO2(DP^An-PSMAt)2]^+ and [^188ReO2(DP^MEP-PSMAt)2]^+, prepared using kits and then isolated using reverse-phase HPLC in >98% radiochemical purity, were also incubated in human serum under the same conditions. […] These ^99mTc and ^188Re radiotracers were also stable when left to stand in kit-based reaction solutions, or in PBS solution (see SI for full chromatograms).
64Cu: A solution of either [ 64Cu(DPAn-PSMAt)2]+ or [64Cu(DPMEP-PSMAt)2]+ (purified, >98% RCP, 0.6– 0.8 MBq in 8–20 µL PBS) was diluted with PBS (350 µL total volume) and incubated at 37 °C. After 24 h, the sample was analysed by analytical C18 radio-HPLC (Method 2). […]
Each aliquot was treated with an equal amount of ice -cold MeCN to precipitate serum proteins and centrifuged (10,000 rpm, 10 min). The supernatant was isolated, MeCN evaporated under a stream of N2, and the resultant solution analysed by analytical C18 radio-HPLC (Method 2). […]

Row | Compound | stability when left to stand in kit-based reaction solutions, or in PBS solution
1 | COc1ccc(P(/C(C(=O)O)=C(/C(=O)NCCOCCOCCOCCOCCC(=O)NCCCC[C@H](NC(=O)N[C@@H](CCC(=O)O)C(=O)O)C(=O)O)P(c2ccc(OC)cc2)c2ccc(OC)cc2)c2ccc(OC)cc2)cc1 [[^99mTcO2(DP^An-PSMAt)2]^+, metal not drawn] | stable
2 | COCCOc1ccc(P(/C(C(=O)O)=C(/C(=O)NCCOCCOCCOCCOCCC(=O)NCCCC[C@H](NC(=O)N[C@@H](CCC(=O)O)C(=O)O)C(=O)O)P(c2ccc(OCCOC)cc2)c2ccc(OCCOC)cc2)c2ccc(OCCOC)cc2)cc1 [[^99mTcO2(DP^MEP-PSMAt)2]^+, metal not drawn] | stable
